These results are taken from patent US20100009361.

For the series, the target named is HA-tagged RAS.

B1: full-length, HA-tagged wild-type SOS1 (protein)
chain: MQAQQLPYEFFSEENAPKWRGLLVPALKKVQGQVHPTLESNDDALQYVEELILQLLNMLCQAQPRSASDVEERVQKSFPHPIDKWAIADAQSAIEKRKRRNPLSLPVEKIHPLLKEVLGYKIDHQVSVYIVAVLEYISADILKLVGNYVRNIRHYEITKQDIKVAMCADKVLMDMFHQDVEDINILSLTDEEPSTSGEQTYYDLVKAFMAEIRQYIRELNLIIKVFREPFVSNSKLFSANDVENIFSRIVDIHELSVKLLGHIEDTVEMTDEGSPHPLVGSCFEDLAEELAFDPYESYARDILRPGFHDRFLSQLSKPGAALYLQSIGEGFKEAVQYVLPRLLLAPVYHCLHYFELLKQLEEKSEDQEDKECLKQAITALLNVQSGMEKICSKSLAKRRLSESACRFYSQQMKGKQLAIKKMNEIQKNIDGWEGKDIGQCCNEFIMEGTLTRVGAKHERHIFLFDGLMICCKSNHGQPRLPGASNAEYRLKEKFFMRKVQINDKDDTNEYKHAFEIILKDENSVIFSAKSAEEKNNWMAALISLQYRSTLERMLDVTMLQEEKEEQMRLPSADVYRFAEPDSEENIIFEENMQPKAGIPIIKAGTVIKLIERLTYHMYADPNFVRTFLTTYRSFCKPQELLSLIIERFEIPEPEPTEADRIAIENGDQPLSAELKRFRKEYIQPVQLRVLNVCRHWVEHHFYDFERDAYLLQRMEEFIGTVRGKAMKKWVESITKIIQRKKIARDNGPGHNITFQSSPPTVEWHISRPGHIETFDLLTLHPIEIARQLTLLESDLYRAVQPSELVGSVWTKEDKEINSPNLLKMIRHTTNLTLWFEKCIVETENLEERVAVVSRIIEILQVFQELNNFNGVLEVVSAMNSSPVYRLDHTFEQIPSRQKKILEEAHELSEDHYKKYLAKLRSINPPCVPFFGIYLTNILKTEEGNPEVLKRHGKELINFSKRRKVAEITGEIQQYQNQPYCLRVESDIKRFFENLNPMGNSMEKEFTDYLFNKSLEIEPRNPKPLPRFPKKYSYPLKSPGVRPSNPRPGTMRHPTPLQQEPRKISYSRIPESETESTASAPNSPRTPLTPPPASGASSTTDVCSVFDSDHSSPFHSSNDTVFIQVTLPHGPRSASVSSISLTKGTDEVPVPPPVPPRRRPESAPAESSPSKIMSKHLDSPPAIPPRQPTSKAYSPRYSISDRTSISDPPESPPLLPPREPVRTPDVFSSSPLHLQPPPLGKKSDHGNAFFPNSPSPFTPPPPQTPSPHGTRRHLPSPPLTQEVDLHSIAGPPVPPRQSTSQHIPKLPPKTYKREHTHPSMHRDGPPLLENAHSS
With B1, the RAS activation entry is “When wild type SOS1 was expressed, RAS activation was low in serum-deprived cells, then increased rapidly after EGF stimulation and finally returned toward basal levels by 30 min”.
